Stoichiometry N data for one substance are collected here from article PMC5463187.

For the experiment, the target named is RSV strain A2 pre-fusion F, single-chain triple mutant (SC-TM) construct (respiratory syncytial virus subgroup A strain A2). Nature of the experiment: crystal structure.

In general, stoichiometry N refers to the number of molecules, sites or subunits per partner or assembly. “RSV strain A2 pre-fusion F, single-chain triple mutant (SC-TM) construct (natural protein)”: the stoichiometry N stood at 3.
